Key:
Assay in all cases: cell-based or functional assay
[1] = biological target: HIV-1 Env of pseudovirus 0815.v3.c3 (clade ACD) (HIV-1)
[2] = biological target: HIV-1 Env of pseudovirus 231965.c01 (clade D) (HIV-1)
[3] = biological target: HIV-1 Env of pseudovirus 231966.c02 (clade D) (HIV-1)
[4] = biological target: HIV-1 Env of pseudovirus 235-47 (clade CRF02_AG) (HIV-1)
[5] = biological target: HIV-1 Env of pseudovirus 3016.v5.c45 (clade D) (HIV-1)
[6] = biological target: HIV-1 Env of pseudovirus 3103.v3.c10 (clade ACD) (HIV-1)
[7] = biological target: HIV-1 Env of pseudovirus 3301.v1.c24 (clade AC) (HIV-1)
[8] = biological target: HIV-1 Env of pseudovirus 3817.v2.c59 (clade CD) (HIV-1)
[9] = biological target: HIV-1 Env of pseudovirus 6041.v3.c23 (clade AC) (HIV-1)
[10] = biological target: HIV-1 Env of pseudovirus 6240_08_TA5_4622 (HIV-1)
[11] = biological target: HIV-1 Env of pseudovirus 6480.v4.c25 (clade CD) (HIV-1)
[12] = biological target: HIV-1 Env of pseudovirus 6540.v4.c1 (clade AC) (HIV-1)
[13] = biological target: HIV-1 Env of pseudovirus 6545.v4.c1 (clade AC) (HIV-1)
[14] = biological target: HIV-1 Env of pseudovirus 6811.v7.c18 (clade CD) (HIV-1)
[15] = biological target: HIV-1 Env of pseudovirus 6952.v1.c20 (clade CD) (HIV-1)
[16] = biological target: HIV-1 Env of pseudovirus 89-F1_2_25 (clade CD) (HIV-1)
[17] = biological target: HIV-1 Env of pseudovirus A07412M1.vrc12 (clade D) (HIV-1)
[18] = biological target: HIV-1 Env of pseudovirus C3347.c11 (clade CRF01_AE) (HIV-1)
[19] = biological target: HIV-1 Env of pseudovirus P1981_C5_3 (clade G) (HIV-1)
[20] = biological target: HIV-1 Env of pseudovirus Q23.17 (HIV-1)
[21] = biological target: HIV-1 Env of pseudovirus REJO4541.67 (HIV-1)
[22] = biological target: HIV-1 Env of pseudovirus X1632_S2_B10 (clade G) (HIV-1)
[23] = biological target: HIV-1 Env of pseudovirus X2131_C1_B5 (clade G) (HIV-1)
[24] = biological target: HIV-1 Env of pseudovirus 1012_11_TC21_3257 (clade B (T/F)) (HIV-1)
[25] = biological target: HIV-1 Env of pseudovirus 3415.v1.c1 (HIV-1)
[26] = biological target: HIV-1 Env of pseudovirus 3817.v2.c59 (HIV-1)
[27] = biological target: HIV-1 Env of pseudovirus 6041.v3.c23 (HIV-1)
[28] = biological target: HIV-1 Env of pseudovirus AC10.0.29 (clade B) (HIV-1)
[29] = biological target: HIV-1 Env of pseudovirus CAAN5342.A2 (clade B) (HIV-1)
[30] = biological target: HIV-1 Env of pseudovirus Ce2060_G9 (clade C (T/F)) (HIV-1)
[31] = biological target: HIV-1 Env of pseudovirus HIV-16055-2.3 (clade C) (HIV-1)
[32] = biological target: HIV-1 Env of pseudovirus WEAU_d15_410_787 (clade B (T/F)) (HIV-1)
[33] = biological target: HIV-1 Env of pseudovirus X2131_C1_B5 (HIV-1)
[34] = biological target: HIV-1 Env pseudovirus 0260.v5.c36 (HIV-1)

## 10E8 (antibody)
[1]
  IC50, titer in TZM.bl cells: 0.332 mg/L
  IC80, titer in TZM.bl cells: 2.87 mg/L
[2]
  IC50, titer in TZM.bl cells: > 10 mg/L
  IC80, titer in TZM.bl cells: > 10 mg/L
[3]
  IC50, titer in TZM.bl cells: 0.191 mg/L
  IC80, titer in TZM.bl cells: 3.13 mg/L
[4]
  IC50, titer in TZM.bl cells: 0.384 mg/L
  IC80, titer in TZM.bl cells: 2.07 mg/L
[5]
  IC50, titer in TZM.bl cells: 0.476 mg/L
  IC80, titer in TZM.bl cells: 4.39 mg/L
[6]
  IC50, titer in TZM.bl cells: > 10 mg/L
  IC80, titer in TZM.bl cells: > 10 mg/L
[7]
  IC50, titer in TZM.bl cells: 4.63 mg/L
  IC80, titer in TZM.bl cells: > 10 mg/L
[8]
  IC50, titer in TZM.bl cells: 1.18 mg/L
  IC80, titer in TZM.bl cells: 5.98 mg/L
[9]
  IC50, titer in TZM.bl cells: 2.33 mg/L
  IC80, titer in TZM.bl cells: 9.77 mg/L
[10]
  IC50, titer in TZM.bl cells: 0.756 mg/L
  IC80, titer in TZM.bl cells: 5.59 mg/L
[11]
  IC50, titer in TZM.bl cells: 8.08 mg/L
  IC80, titer in TZM.bl cells: > 10 mg/L
[12]
  IC50, titer in TZM.bl cells: 1.9 mg/L
  IC80, titer in TZM.bl cells: 10 mg/L
[13]
  IC50, titer in TZM.bl cells: 1.78 mg/L
  IC80, titer in TZM.bl cells: 8.23 mg/L
[14]
  IC50, titer in TZM.bl cells: 7.54 mg/L
  IC80, titer in TZM.bl cells: > 10 mg/L
[15]
  IC50, titer in TZM.bl cells: 0.343 mg/L
  IC80, titer in TZM.bl cells: 1.91 mg/L
[16]
  IC50, titer in TZM.bl cells: 1.11 mg/L
  IC80, titer in TZM.bl cells: 10 mg/L
[17]
  IC50, titer in TZM.bl cells: 0.576 mg/L
  IC80, titer in TZM.bl cells: 6.05 mg/L
[18]
  IC50, titer in TZM.bl cells: 0.016 mg/L
  IC80, titer in TZM.bl cells: 0.167 mg/L
[19]
  IC50, titer in TZM.bl cells: 0.057 mg/L
  IC80, titer in TZM.bl cells: 0.285 mg/L
[20]
  IC50, titer in TZM.bl cells: 1.64 mg/L
  IC80, titer in TZM.bl cells: 7.04 mg/L
[21]
  IC50, titer in TZM.bl cells: 0.203 mg/L
  IC80, titer in TZM.bl cells: 1.69 mg/L
[22]
  IC50, titer in TZM.bl cells: 1.98 mg/L
  IC80, titer in TZM.bl cells: 9.68 mg/L
[23]
  IC50, titer in TZM.bl cells: 0.189 mg/L
  IC80, titer in TZM.bl cells: 0.974 mg/L

## N49P7.2 (antibody)
[24]
  IC50: 0.06 mg/L
  IC80: 0.285 mg/L
  MPI: 100
[25]
  IC50: 0.381 mg/L
  IC80: 1.58 mg/L
  MPI: 100
[26]
  IC50: 9.83 mg/L
  IC80: > 50 mg/L
  MPI: 68
[27]
  IC50: 0.309 mg/L
  IC80: 5.11 mg/L
  MPI: 94
[28]
  IC50: 44.2 mg/L
  IC80: > 50 mg/L
  MPI: 53
[29]
  IC50: 0.809 mg/L
  IC80: 2.81 mg/L
  MPI: 100
[30]
  IC50: 0.821 mg/L
  IC80: 2.81 mg/L
  MPI: 100
[31]
  IC50: 0.204 mg/L
  IC80: 0.721 mg/L
  MPI: 100
[32]
  IC50: 0.052 mg/L
  IC80: 0.15 mg/L
  MPI: 100
[33]
  IC50: 0.161 mg/L
  IC80: 0.671 mg/L
  MPI: 100

## N49P9 (antibody)
[10]
  IC50: 0.308 mg/L
  IC80: 1.26 mg/L
  MPI: 100
[20]
  IC50: 0.032 mg/L
  IC80: 0.091 mg/L
  MPI: 100
[21]
  IC50: 0.071 mg/L
  IC80: 0.291 mg/L
  MPI: 100
[34]
  IC50: 0.466 mg/L
  IC80: 1.85 mg/L
  MPI: 100

## N49P9.1 (antibody)
[10]
  IC50: 0.716 mg/L
  IC80: 2.55 mg/L
  MPI: 100
[20]
  IC50: 0.029 mg/L
  IC80: 0.106 mg/L
  MPI: 100
[21]
  IC50: 0.064 mg/L
  IC80: 0.231 mg/L
  MPI: 100
[34]
  IC50: 0.519 mg/L
  IC80: 0.151 mg/L
  MPI: 100

## N49P11 (antibody)
[24]
  IC50: 10.6 mg/L
  IC80: 29.3 mg/L
  MPI: 100
[25]
  IC50: 1.86 mg/L
  IC80: 10.3 mg/L
  MPI: 100
[26]
  IC50: 4.72 mg/L
  IC80: 15.9 mg/L
  MPI: 100
[27]
  IC50: 4.42 mg/L
  IC80: 17.6 mg/L
  MPI: 100
[28]
  IC50: 5.52 mg/L
  IC80: 20 mg/L
  MPI: 100
[29]
  IC50: 9.03 mg/L
  IC80: 20.8 mg/L
  MPI: 100
[30]
  IC50: 3.33 mg/L
  IC80: 13.2 mg/L
  MPI: 100
[31]
  IC50: 0.091 mg/L
  IC80: 0.503 mg/L
  MPI: 100
[32]
  IC50: 1.7 mg/L
  IC80: 6.02 mg/L
  MPI: 100
[33]
  IC50: 5.36 mg/L
  IC80: 18.4 mg/L
  MPI: 100

## N49P18.1 (antibody)
[24]
  IC50: 16.1 mg/L
  IC80: > 50 mg/L
  MPI: 79
[25]
  IC50: > 50 mg/L
  IC80: > 50 mg/L
  MPI: 48
[26]
  IC50: > 50 mg/L
  IC80: > 50 mg/L
  MPI: 34
[27]
  IC50: 3.05 mg/L
  IC80: 12.2 mg/L
  MPI: 96
[28]
  IC50: 20 mg/L
  IC80: > 50 mg/L
  MPI: 71
[29]
  IC50: 16.1 mg/L
  IC80: 49.1 mg/L
  MPI: 83
[30]
  IC50: > 50 mg/L
  IC80: > 50 mg/L
  MPI: 37
[31]
  IC50: 8.04 mg/L
  IC80: 22.6 mg/L
  MPI: 97
[32]
  IC50: 4.27 mg/L
  IC80: 15.5 mg/L
  MPI: 98
[33]
  IC50: 30.4 mg/L
  IC80: > 50 mg/L
  MPI: 75

## N49P19 (antibody)
[10]
  IC50: 2.1 mg/L
  IC80: 7.52 mg/L
  MPI: 100
[20]
  IC50: 0.234 mg/L
  IC80: 1.37 mg/L
  MPI: 100
[21]
  IC50: 0.169 mg/L
  IC80: 0.859 mg/L
  MPI: 100
[34]
  IC50: 1.25 mg/L
  IC80: 8.52 mg/L
  MPI: 99

Reference: US20230002480A1
